As a reminder, the Kd is the equilibrium constant for the complex coming apart. The low end stands for a tighter complex, the high end for a looser complex. The term koff denotes the rate constant with which the complex falls apart. For orientation: kon means the rate constant with which the complex forms.

The target in test [1] is HU-3pE-beta-Amyloid (human). Kind of test: SPR; HU-3pE-beta-Amyloid 0.6 to 4.5 nM.
Test [2] deals with cynomolgus FcRn (cynomolgus) (UniProt Q8SPV9). The experiment in a line: FcRn binding affinity; method not described; average of 5-6 replicates.
A further test concerns the target human FcRn (human) (UniProt P55899). The test is described as above.

Sequence of human FcRn (human) (P55899 24-297 limits assumed, chain 1 of 2): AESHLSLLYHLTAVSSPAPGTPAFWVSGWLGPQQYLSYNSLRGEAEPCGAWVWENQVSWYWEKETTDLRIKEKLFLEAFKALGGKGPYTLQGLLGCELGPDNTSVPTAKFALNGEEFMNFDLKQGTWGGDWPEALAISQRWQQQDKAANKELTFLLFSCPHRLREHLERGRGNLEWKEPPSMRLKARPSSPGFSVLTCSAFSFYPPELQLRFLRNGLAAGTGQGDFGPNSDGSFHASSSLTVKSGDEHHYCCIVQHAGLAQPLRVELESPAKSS
Sequence of human FcRn (human) (P61769 21-119 limits assumed, chain 2 of 2, further chain): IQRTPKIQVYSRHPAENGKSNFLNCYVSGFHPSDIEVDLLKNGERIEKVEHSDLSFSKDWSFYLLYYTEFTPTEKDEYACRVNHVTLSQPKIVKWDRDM
Sequence of cynomolgus FcRn (cynomolgus) (Q8SPV9 24-297 limits assumed, chain 1 of 2): as the sequence (P55899 24-297 limits assumed, chain 1 of 2) above, with N39D, E44Q, G99S, S189G, S190N, L217M, S269T counted along it
Sequence of cynomolgus FcRn (cynomolgus) (Q8SPW0 21-119 limits assumed, chain 2 of 2, further chain): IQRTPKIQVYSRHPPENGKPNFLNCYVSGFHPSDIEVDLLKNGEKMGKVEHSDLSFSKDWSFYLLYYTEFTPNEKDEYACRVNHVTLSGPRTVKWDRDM

On to Control mAb (antibody), for which, in test [1], the dissociation constant (Kd) was determined as 0.0379 nM, the koff came out at 0.000156 s⁻¹ and the kon was found to be 4.11e+06 M⁻¹ s⁻¹.
For the substance IgG1 control (antibody), the Kd in test [2] came out at 430 nM; with human FcRn (human), 443 nM.

Source of the values: patent publication US20220177560A1.
